Measured values reported in ChEMBL document CHEMBL1137898, “Benzopyranones with retro-amide side chains as (inhibitory) beta-lactamase substrates” (Bioorg Med Chem Lett, 2004).

Legend:
[1] = substrate: O=C(O)c1cccc2c1OC(=O)C(C(=O)NCc1ccccc1)C2; experiment: (§1) Km for OXA-1 beta-lactamase hydrolysis
[2] = substrate: O=C(Cc1ccccc1)NC1Cc2cccc(C(=O)O)c2OC1=O; experiment: as §1
[3] = substrate: CC(=O)OCC1=C(C(=O)O)N2C(=O)[C@@H](NC(=O)Cc3cccs3)[C@H]2SC1; experiment: as §1
[4] = substrate: O=C(O)c1cccc2c1OC(=O)C(C(=O)NCc1ccccc1)C2; experiment: (§2) Km for Staphylococcus aureus PC1 Beta-lactamase hydrolysis
[5] = substrate: O=C(Cc1ccccc1)NC1Cc2cccc(C(=O)O)c2OC1=O; experiment: as §2
[6] = substrate: CC(=O)OCC1=C(C(=O)O)N2C(=O)[C@@H](NC(=O)Cc3cccs3)[C@H]2SC1; experiment: as §2
[7] = substrate: O=C(O)c1ccc2c(c1)OC(=O)C(C(=O)NCc1ccccc1)C2; experiment: as §2
[8] = substrate: O=C(Cc1ccccc1)NC1Cc2ccc(C(=O)O)cc2OC1=O; experiment: (§3) Km for TEM-2 beta-lactamase hydrolysis
[9] = substrate: O=C(O)c1cccc2c1OC(=O)C(C(=O)NCc1ccccc1)C2; experiment: as §3
[10] = substrate: O=C(Cc1ccccc1)NC1Cc2cccc(C(=O)O)c2OC1=O; experiment: as §3
[11] = substrate: O=C(O)c1ccc2c(c1)OC(=O)C(C(=O)NCc1ccccc1)C2; experiment: as §3
[12] = substrate: O=C(Cc1ccccc1)NC1Cc2ccc(C(=O)O)cc2OC1=O; experiment: (§4) Km for Enterobacter cloacae P99 Beta-lactamase hydrolysis
[13] = substrate: O=C(O)c1cccc2c1OC(=O)C(C(=O)NCc1ccccc1)C2; experiment: as §4
[14] = substrate: O=C(Cc1ccccc1)NC1Cc2cccc(C(=O)O)c2OC1=O; experiment: as §4
[15] = substrate: CC(=O)OCC1=C(C(=O)O)N2C(=O)[C@@H](NC(=O)Cc3cccs3)[C@H]2SC1; experiment: as §4
[16] = substrate: O=C(O)c1ccc2c(c1)OC(=O)C(C(=O)NCc1ccccc1)C2; experiment: as §4

B1: Beta-lactamase OXA-1 (Escherichia coli), P13661 (protein)
chain: MKNTIHINFAIFLIIANIIYSSASASTDISTVASPLFEGTEGCFLLYDASTNAEIAQFNKAKCATQMAPDSTFKIALSLMAFDAEIIDQKTIFKWDKTPKGMEIWNSNHTPKTWMQFSVVWVSQEITQKIGLNKIKNYLKDFDYGNQDFSGDKERNNGLTEAWLESSLKISPEEQIQFLRKIINHNLPVKNSAIENTIENMYLQDLDNSTKLYGKTGAGFTANRTLQNGWFEGFIISKSGHKYVFVSALTGNLGSNLTSSIKAKKNAITILNTLNL
Protein B1 has a Km [1] of 7.4 µM, a Km [2] of 13.9 µM and a Km [3] of 10 µM.

B2: Beta-lactamase (Staphylococcus aureus), P00807 (protein)
chain: MKKLIFLIVIALVLSACNSNSSHAKELNDLEKKYNAHIGVYALDTKSGKEVKFNSDKRFAYASTSKAINSAILLEQVPYNKLNKKVHINKDDIVAYSPILEKYVGKDITLKALIEASMTYSDNTANNKIIKEIGGIKKVKQRLKELGDKVTNPVRYEIELNYYSPKSKKDTSTPAAFGKTLNKLIANGKLSKENKKFLLDLMLNNKSGDTLIKDGVPKDYKVADKSGQAITYASRNDVAFVYPKGQSEPIVLVIFTNKDNKSDKPNDKLISETAKSVMKEF
In the case of B2, the Km [4] is reported as 1.8 µM, the Km [5] is reported as 0.3 µM and the Km [6] is reported as 1 µM. It also gave a Km [7] of over 200 µM.

B3: Beta-lactamase TEM (Escherichia coli), P62593 (protein)
chain: MSIQHFRVALIPFFAAFCLPVFAHPETLVKVKDAEDQLGARVGYIELDLNSGKILESFRPEERFPMMSTFKVLLCGAVLSRVDAGQEQLGRRIHYSQNDLVEYSPVTEKHLTDGMTVRELCSAAITMSDNTAANLLLTTIGGPKELTAFLHNMGDHVTRLDRWEPELNEAIPNDERDTTMPAAMATTLRKLLTGELLTLASRQQLIDWMEADKVAGPLLRSALPAGWFIADKSGAGERGSRGIIAALGPDGKPSRIVVIYTTGSQATMDERNRQIAEIGASLIKHW
In the case of B3, the Km [8] is reported as over 1200 µM, the Km [9] is reported as 290 µM and the Km [10] is reported as 50 µM. It also gave a Km [11] of over 200 µM.

B4: Beta-lactamase (Enterobacter cloacae), P05364 (protein)
chain: MMRKSLCCALLLGISCSALATPVSEKQLAEVVANTITPLMKAQSVPGMAVAVIYQGKPHYYTFGKADIAANKPVTPQTLFELGSISKTFTGVLGGDAIARGEISLDDAVTRYWPQLTGKQWQGIRMLDLATYTAGGLPLQVPDEVTDNASLLRFYQNWQPQWKPGTTRLYANASIGLFGALAVKPSGMPYEQAMTTRVLKPLKLDHTWINVPKAEEAHYAWGYRDGKAVRVSPGMLDAQAYGVKTNVQDMANWVMANMAPENVADASLKQGIALAQSRYWRIGSMYQGLGWEMLNWPVEANTVVEGSDSKVALAPLPVAEVNPPAPPVKASWVHKTGSTGGFGSYVAFIPEKQIGIVMLANTSYPNPARVEAAYHILEALQ
For B4, the Km [12] was 290 µM, the Km [13] was 0.2 µM and the Km [14] was 620 µM. The Km [15] was 9 µM and the Km [16] was 430 µM.
